Results published in the DeepSol protein solubility set.

Experiment: soluble on expression in E. coli; label from the status in PepcDB or PDB records

Sequence | soluble on expression in E. coli
MKTGPLNESELEWLDDILTKYNTDHAILDVAELDGLLTAVLSSPQEIEPEQWLVAVWGGADYVPRWASEKEMTRFMNLAFQHMADTAERLNEFPEQFEPLFGLREVDGSELTIVEEWCFGYMRGVALSDWSTLPDSLKPALEAIALHGTEENFERVEKMSPEAFEESVDAIRLAALDLHAYWMAHPQEKAVQQPIKAEEKPGRNDPCPCGSGKKFKQCCLH | not soluble
MLVAYDSMTGNVKRFIHKLNMPAVQIDEDLVIDEDFILITYTTGFGNVPERVLDFLERNNEKLKGVSASGNRNWGDMFGASADKISTKYEVPIVSKFELSGTNNDVEYFKERVREIATH | soluble
MNITVPKKLLSDQLSLLERIVPSRSANPLYTYLGLYAEEGALILFGTNGEVDLEVRLPAEAQSLPRVLVPAQPFFQLVRSLPGDLVALGLASEPGQGGQLELSSGRFRTRLSLAPAEGYPELLVPEGEDKGAFPLRTRMPSGELVKALTHVRYAASNEEYRAIFRGVQLEFSPQGFRAVASDGYRLALYDLPLPQGFQAKAVVPARSVDEMVRVLKGADGAEADLALGEGVLALALEGGSGVRMALRLMEGEFPDYQRVIPQEFALKVQVEGEALREAVRRVSVLSDRQNHRVDLLLEEGRILLSAEGDYGKGQEEVPAQVEGPGMAVAYNARYLLEALAPVGDRAHLGISGPTSPSLIWGDGEGYRAVVVPLRV | soluble
MAELIHSTIGRLLEQTADAYPDRDAVVYPDRNIRYTYAQFDSLCRQTAKGLMRMGIGKGDHVAIWASNISEWLAVQFATAKIGAVLVTVNTNYQAHELDYLLKQSDAAALIIMDSYRGTSYPDIVNSLIPELQEAKPGQLKSERYPFLKTLIYIGNKRLSGMYHWDDTEILAKTVTDAELEERMNSLDKDNVINMQYTSGTTGFPKGVMLTHFNVINNAANIAECMALTSQDRMCIPVPFFHCFGCVLGVLACVSVGAAMIPVQEFDPVTVLKTVEKEKCTVLHGVPTMFIAELHHPDFDAYDLSTLRTGIMAGSPCPSEVMKAVIERMGMKDITIAYGQTEASPVITQTRANDSFIRRVETTGRALPHTEVKIVEPGTCQEVQRGMQGELCTRGYHVMKGYYKDKDATRKAINHDGWLFTGDLAVMDEDGYCRITGRLKDMLIRGGENIYPREIEEFLYQHPAVLDVQVVGVPDAKFGEEAAAWIKLKDGKSVSPDELKAYCKGKIARHKIPRYVIFTDDYPMTASGKIQKY | not soluble
MSLDKIKAVIFDMDGVLIDAKEWHYEALNKALRLFGFEISRYDHLVTFDGLPTAKKLEMMTVERGLPKSLHQLINDMKQIYTMEYVYMKCKPLFVHQYALSRLKSEGFRLALASNSVRVTIDMMMEKADLNQYLDFSLSNQDVKKSKPDPEIYITAINRLGLSPEECLVVEDNQNGVKAALASGANLLKVETINDVTYSNIINRINEIENNIEGHHHHHH | soluble
MSLENISQKYSCSIVPLAEKKIFSVNDGLNVILKSLEDTKAEDIVSIDIQGKSSLADYMVIASAHSQRHVSSVADHLLRTWKDSGYGRASVEGLTEGNWVLIDTGDIIIHLFRPEIRLFYNLEKMWLTPDLNNTKLALFGDH | not soluble
MGSDKIHHHHHHMLKRLLDYNEGEEFDLVLMVKNSELRQDKRGKHYLLMQLADSSGSIRANYWQAKAEDASRFNAGTVVEASGMIEDYHNHDQIKLFSIHPVSPDDQADLSQLVATAPEKPAEMEKEIKDFVAQIDNKNWHDLVDFLLKKWSSRFFAYPAGKSNHHAYKGGLAFHTLTMLKDARGLADNYPAVNRSLLYAGCILHDMGKVLELSGPVATQYTAEGNLVGHLVLIDEQLMLAAQELKIDLASEDLLLLRHMVLSHHGRYEYGSPKLPALLEAELLHRIDDLDAAVNAITTVNCPRPSRGNSPRR | not soluble
SLWASADAIQQKLADLEKRSGGRLGVALINTADDSQTLYRGDERFAMCSTGKVMAAAAVLKQSESNPEVVNKRLEIKKSDLVVWSPITEKHLQSGMTLAELSAAALQYSDNTAMNKMISYLGGPEKVTAFAQSIGDVTFRLDRTEPALNSAIPGDKRDTTTPLAMAESLRKLTLGNALGEQQRAQLVTWLKGNTTGGQSIRAGLPASWAVGDKTGAGDYGTTNDIAVIWPENHAPLVLVTYFTQPQQDAKSRKEVLAAAAKIVTEGL | soluble
MGFFSRDIQTMEDLLLHGLRDIYYAEQQITKALPKMIEQATNRDLSQGLTSHLEETQKQIERLDQVFKKLGQKPSGVNCPAIDGLIKEADETAGEIADKTVLDAAIVANAQAVEHYEIARYGTLIAWAEELGHDDIVRFLTTNLNEEKAANTKLNTVALRKGVNRKAAS | soluble
GPGSMWGPNQEVAHPRHDGKSFYLPSTSAAGAAALGASLLPHSNLVCAPLNPHIAREPVDTATGDGDGTVRALLTRFRIENERLRDQVKAHVVQEALLTQRLQELSARNTALHLQDFRKRDNDAVVEKLKKQLEVKEMEVRALQLQVGELNGRISAYEEAISRPDHPQGLSANSMDRVRELICEALSSAGFLTRVANAVEHCHPSTHEVTDCPRSVEECTNHCLQAAMRGNKELPGETAARGHHVSCEELASALREEVLFCETVAVRVAAKLFMERSSADSSAKADRGTGLQHQEESAPPLARPTAECPAEAHELPQSDRRPRRKPAARPTVEDCEVQ | not soluble
AVKVGINGFGRIGRNVFRAALKNPDIEVVAVNDLTDANTLAHLLKYDSVHGRLDAEVSVNGNNLVVNGKEIIVKAERDPENLAWGEIGVDIVVESTGRFTKREDAAKHLEAGAKKVIISAPAKNEDITIVMGVNQDKYDPKAHHVISNASCTTNCLAPFAKVLHEQFGIVRGMMTTVHSYTNDQRILDLPHKDLRRARAAAESIIPTTTGAAKAVALVLPELKGKLNGMAMRVPTPNVSVVDLVAELEKEVTVEEVNAALKAAAEGELKGILAYSEEPLVSRDYNGSTVSSTIDALSTMVIDGKMVKVVSWYDNETGYSHRVVDLAAYIASKGL | soluble
MSLVFVACGLNHKTAPIHVREKVALQPAMQDSLLSSLLDLPEVNEAAILSTCNRTEIYCDTNTPEVLGNWLAHEHQLSEELLSQFLYIHQGKEGIKHTLRVASGLDSMMIGEPQILGQMKQAYQHACRLGTVKTQLRPVFEYIFRASKRIRTRSGIGANPVSIAYAAVQLIGQLFKNYHSLSVFLIGSGETASLVAKYLHQHGVHRFLIASRTLENAQKLAETFGGKTLSIGDIPQYLPLADVVISATACPLPFINKSLVEHALEQRNHAPMFLLDLAVPRDIEGNVNELEQVHLYNVDDLQSMIEKGMDERRNAALQAEQLIESELDNYIRWHRSLRAKDVICDYRNQMHTLAQQELQRALKKISAGQNQQDVLNEFSMRLVNKLTHNPTIGLRQIAWDNREDLLDLARYLFDTTANQSLYEEISEGHHHHHH | not soluble
MGSDKIHHHHHHTIVSCSDDKGEDGYNPNLPVRISELSPQEGGYFDKVILQGENFGNNPKKVRVFFNKKEAIVVGASGDRVLVHVPKLPGDDCKIGMLLNGNTTDTIFAEKHFAYEKNYQLIYVAGQLNSNTETFVEGSLETTTFANSMQHLACDPSGVIYMNHKNQVKVAVLFTLMNLRTTLSFWIMEHLLKTEARLALRIMMTKQRRFTSVRTMLHFFGKLILRIHGLL | not soluble
MGSDKIHHHHHHMIPIEIDSGSGFCFGVVNAIRHAEKQLEKSSDKLYCLGDIVHNTLEVERLGKKGLETIDYDAFSRLRGAKVLLRAHGEPPEIYRMAGENGVTIIDATCPVVLRLQNKIKSRYEATRSLGAQVVIYGKRGHAEVNGLVGQTEGTAIVIESEEELDKIDYTRPVILFSQTTKSLEGFGQIIDSISTRMQPGVTFEHHDTICRQVANRIPHIGAFATAHELVFFVAGEKSSNGKVLFGHCLAANPRSIFISSPEVIVPDMLVPLPASIGICGATSTPRWQMEEVASHIKALL | not soluble
MGHHHHHHSHMVTMEELREMDCSVLKRLMNRDENGGGAGGSGSHGTLGLPSGGKCLLLDCRPFLAHSAGYILGSVNVRCNTIVRRRAKGSVSLEQILPAEEEVRARLRSGLYSAVIVYDERSPRAESLREDSTVSLVVQALRRNAERTDICLLKGGYERFSSEYPEFCSKTKALAAIP | not soluble
MGSDKIHHHHHHMTTNEIEIRLMQDVDAAGVVELYKTVYGNEYPVKTVYDPAAVIEQQNNGEMYRIIARSGDKVVGQTALYRSTSPNPELYEEGQGIVLPLYRNQGILEQCLAYGHKVAYPQLNIKQEWGEAVCNHTFTQKAGARLGAFETGIELDLMPASSYVKEQSSQGRVAALVMFLIFQAAPPQLLYLPETYADSLHYLYSAYDFKHEFVSSKSLLPEQATRGQVEIYADAAVARFTLLETGKDLEDYLLEQEKLAQAQGCSVFQAYLKLANPAVGHAVNILREHQYFLGGILPRWFATDGLLMQKLLHEPNLEGINLYSERSHKILNMIIDDRNTVIK | not soluble
MPSKQVGWWTMSEHTNDEVQPTALSGNDAVNRAAEQWKESAHRNIPGLGDLPIPDDTANLREGPNLHDGLLALLPLVGVWRGTGHADTAEEGQYAFGQQITFAHDGENYLTYESRIWKLDDEGNSTDLDYRESGFWRISLKDEIEVVLTHSTGVAEIFYGEPMNERAWQIESASTMVTAQGPATLGPGKRLYGLMPNNNLGWVDERMVDGEMRPRMSAELSRVIGLEHHHHHH | soluble
DFEDVHIAEARVDVPSTWRDQIVNTNAVATETHPLKCAEVETQTGSKDNQGTQTDDAGGGRPPSPSKVQASGVADFMAKVEGMVAGELVKATEEHEVLEPFTRAADDEQEPATCIHYLSPFQQDAA | not soluble
MAHHHHHHMASTGNGGDSKAAASSLSPQKAGMVAPLTSAPPLTASTTSPSRLNSMRTANASASSKNNAPTGPSKKGGTAVKPSPEVGGKAAAGSSEPEPRASVNIDRQSKPNANSVNASNVADSTNAPSGKRPDHGRRGRRQECSSWFDAEKPAKADRPADKELNQNVQIVQDDIPDAEQAHREQAERAQRQKEKLARHISESPTGFQATLPRLNELDVTNSWDKLLRMMRSEFDMSCLTSCLARELDEDVAWNPEMLLVQLTSDMLDAAELQKDGGEAYVPVDASDIGQMTGGEVARRRKEKRSTTTAGGAAPAAGAAGGTEREPEKGSEKPAAASPTPAFQAAASKALRKQTTTDPAAAAPSSKKARDTDNAASTSTANSSSTRKRSAAGSRSGEASGGGGNNTNASSSTAKGDSADDTKSSKSTSLKAQVSKLFSK | not soluble
MGSDKIHHHHHHMVTLVRQVEIQPYQPKYAQAVSELFHLCVHNIEHERYSQAQLNAWSKAPRSAKHWHLRLSRSQAWIILVTSTESLSKICVGFINVETDYYHRGYIDSFYIHPDWQRQGVGGRVYCELEQWARGQGYASLSVDASYLSKGLFTQLGFVQIQRNYQQKLGQVLTSFYMTKKL | not soluble
MSLFLSNVILHQLRKNDNDELVVNYRAESLRNDTSTENLVAELHRVFNAKAGKGFGCFKSDSEFQLWLQEMRRGTLPFYEFSQQSAQRLKNELAKYPFADEGILVMAEYQSLATDYLFIGLLPLNQSLKVTEGLDISATDYLDINKMDIVARIDLSSYETDKESKRYLSYIKGRVGRKVADFFLDFLQADIGLDTKQQNQVLMQAVEDFCADAKFEKEEVISYKKQVYEYCNDQIKAGDEVRVQELSGELPPSNEGVNFFDFTREQGYQLEESFPADRSTVRKLTKYVGAGGGLNLSFDSLLLGERVFYDPETDTLTIKGTPPNLEHHHHHH | not soluble
